Measured values as given in EP3783015A1 (Beijing DCTY Biotech Co., Ltd., dated 2021).

Molecular target: T1, ErbB2-Domain4 protein (human, UniProt P04626 1-675)
T1 construct: Made in E. coli BL21(DE3) from pET-28a (NdeI/XhoI), dissolved from inclusion bodies in 8 M urea and purified on a Ni column; also called ErbB2-Domain4-encoded protein
Experiment: indirect ELISA, ErbB2-Domain4 protein coated at 100 ng/well, antibody in serial dilution, A450

B1: mouse anti-human ErbB2 monoclonal antibody 10A6 (antibody, mouse IgG1, kappa, V domains shown)
VH: QVTLKESGPGILQPSQTLSLTCSFSGFSLSTSGMGVSWIRQPSGKGLEWLAHIYWDDDKRYNPSLKSRLTISKDSSNKQVFLKFTSVDTADTATYYCAHFAYYNYDGAVDSWGQGTSVTVSS
VL: DIVMSQSPSSLTVSAGEKVSMSCKSSQSLLHSRTRKNYLAWYQQKPGQSPKLLIYWASTRESGVPDRFTGSGSGTDFTLTISSVQAEDLAVYYCKQSYSLYTFGGGTKLEIKR
notes: Mouse IgG1-Kappa, purified from hybridoma supernatant on protein G; also called 10A6 clonal antibody protein
EC50: 100 nM
